Reference: PMC5557857 (2017)

Tests used:
[1] = biological target: epidermal growth factor receptor 2 (HER2) expressed on SKOV3 cells (human (endogenous in SKOV3)) (UniProt P04626); test: split reporter (BiFC, NanoBiT); TEC screen: HER2-expressing SKOV3 cells incubated 1 hr at ambient temperature with clarified lysates of one β9 fusion and one β10 fusion (PBS + 1% BSA), washed 3 times, luminescence 30 min after Δ11S lysate (1:20) and Nano-Glo substrate; signal-to-background, average of three days
[2] = biological target: T1, β10 peptide (synthetic) (Oplophorus gracilirostris, Synthetic 11-mer. The sequence is only in Table S1, so the high-affinity NanoBiT peptide 86 (HiBiT-type) variant of strand 10 is assumed. Termini are not stated.); test: luminescence complementation, 10 uM Nano-Glo substrate
T1 chain: VSGWRLFKKIS

With “9.29-β10 (DARPin 9.29 with β10 at the C-terminus) (designed binder)” the TEC signal-to-background with PertH-β9 [1] was 346, the TEC signal-to-background with β9-G3 [1] was 122 and the TEC signal-to-background with β9-L73J [1] was 597. The TEC signal-to-background with β9-LPert [1] was 265.

In the case of “G3-β9 (DARPin G3 with β9 at the C-terminus) (designed binder)”, the TEC signal-to-background with PertH-β10 [1] is reported as 122 and the TEC signal-to-background with β10-L73J [1] is reported as 126.

For “G3-β10 (DARPin G3 with β10 at the C-terminus) (designed binder)”, the TEC signal-to-background with PertH-β9 [1] was 103, the TEC signal-to-background with β9-L73J [1] was 1360 and the TEC signal-to-background with β9-LPert [1] was 353.

With “β9-9.29 (DARPin 9.29 with β9 at the N-terminus) (designed binder)” the TEC signal-to-background with PertH-β10 [1] was 671 and the TEC signal-to-background with β10-L73J [1] was 173.

“β9-G3 (DARPin G3 with β9 at the N-terminus) (designed binder)” showed a TEC signal-to-background with 9.29-β10 [1] of 122 and a TEC signal-to-background with 73JH-β10 [1] of 219.

Work on “β10-G3 (DARPin G3 with β10 at the N-terminus) (designed binder)” yielded a TEC signal-to-background with β9-L73J [1] of 197.

B1: 11S (beta-strands 1-9 of NanoLuc, main fragment of NanoBiT) (domain or fragment)
chain: MVFTLEDFVGDWEQTAAYNLDQVLEQGGVSSLLQNLAVSVTPIQRIVRSGENALKIDIHVIIPYEGLSADQMAQIEEVFKVVYPVDDHHFKVILPYGTLVIDGVTPNMLNYFGRPYEGIAVFDGKKITVTGTLWNGNKIIDERLITPDGSMLFRVTINS
Molecule B1 has a Kd [2] of 4 nM.
